Results taken from the supplement of paper PMC10567573.
± gives the standard deviation.

Experiment: protein stability index of a GFP-peptide fusion (GPS, HEK-293T) (PSI 1-6); higher = more stable
[1] = treatment: DMSO, c terminus: a fixed tail appended
[2] = treatment: MLN4924 1 uM, 8 h, c terminus: a fixed tail appended
[3] = treatment: DMSO, c terminus: native
[4] = treatment: MLN4924 1 uM, 8 h, c terminus: native
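Further: 24-mer peptide tiles fused after GFP, lentivirally expressed, FACS-sorted into six equal bins by GFP/DsRed ratio, decoded by Illumina sequencing, PSI is the read-weighted mean bin number.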

Row | Sequence | protein stability index [1] | protein stability index [2] | protein stability index [3] | protein stability index [4]
1 | VLQDRAAKGSLGTQIGFADLMGVL [FEM1A] | 2.15 ± 0.31 | 2.22 ± 0.35 | – | –
2 | VPQDPDLEEEEEEEDLVLTCEDDE [ZBTB22] | 5.59 ± 0.22 | 5.64 ± 0.25 | – | –
3 | EELVARSETHAAGHSQEKTHSREK [CHGB] | 5.66 ± 0.28 | 5.47 ± 0.5 | – | –
4 | MFGFFFGRTPLIKLSPKKTWEGFI [CDS2] | 2.38 ± 0.48 | 2.35 ± 0.49 | – | –
5 | LDFLQEVTRQPRNLQDLCRIKIRQ [ASB7] | 3.35 ± 0.16 | 3.57 ± 0.3 | – | –
6 | VEGRKHVDVQTELYLEEIADRIIE [RSPH3] | 2.55 ± 0.33 | 2.77 ± 0.41 | – | –
7 | GGIRGRAMALTSSMNWGINLLISL [SLC2A12] | 2.26 ± 0.7 | 2.54 ± 0.42 | – | –
8 | SSHFLEQTLDKKLMSDLRRKRTAH [INTS4] | 4.06 ± 0.23 | 4.14 ± 0.17 | – | –
9 | EDRVKLFGIEIEVTDINDNAPKFQ [PCDHGA10] | 3.35 ± 0.43 | 3.52 ± 0.46 | – | –
10 | DVPNRLVDNIDMIDGDGDDMERFM [BEX5] | 4.98 ± 0.18 | 5.06 ± 0.21 | – | –
11 | ERLAEAEKSQLIMQAEAEAASVRM [FLOT1] | 4.84 ± 0.39 | 4.66 ± 0.3 | – | –
12 | RVIKCDPDCLRACQEQIEALLESS [CCND1] | 3.3 ± 0.3 | 3.19 ± 0.2 | – | –
13 | AAPWPMAFPYQYPPPPHPYNPHPG [DVL3] | 2.62 ± 0.26 | 2.85 ± 0.21 | – | –
14 | VGGGSGDEASAATPPSSRRVWSPP [ZBTB22] | 4.66 ± 0.2 | 4.76 ± 0.34 | – | –
15 | PSNFLEIDVSNPQTVGVGRGRFTT [SNX3] | 3.84 ± 0.29 | 3.8 ± 0.59 | – | –
16 | SWTAVTPQQTWASPAEVVDLTLDE [C18orf25] | 4.74 ± 0.21 | 4.73 ± 0.2 | – | –
17 | CHLFSTYVASHKIEKEEQEKKRKE [ACBD3] | 4.41 ± 0.41 | 4.43 ± 0.21 | – | –
18 | PGNPSLHSRFVELSEAYRVLSREQ [DNAJC4] | 3.68 ± 0.44 | 3.81 ± 0.21 | – | –
19 | CRALRDPALDSLAYEYEREGLYEQ [TRADD] | 3.73 ± 0.34 | 3.63 ± 0.18 | – | –
20 | ASDYFKAMFTGGMKEQDLMCIKLH [KLHL13] | 2.13 ± 0.17 | 2.13 ± 0.25 | – | –
21 | LYRNGKDQDGDQAPEYRGRTELLK [MOG] | 4.59 ± 0.14 | 4.68 ± 0.34 | – | –
22 | WENRHEGVFKFLRSEAVAQLWGQK [ELF3] | 2.43 ± 0.32 | 2.67 ± 0.35 | – | –
23 | QTWNNSTWSNQTQNIQSWSNHSWN [NANOGP8] | 2.36 ± 0.24 | 2.46 ± 0.28 | – | –

Row | Sequence | protein stability index [1] | protein stability index [2] | protein stability index [3] | protein stability index [4]
24 | REKEDYLHLKRQPKRRWLFWNSPS [RHOBTB2] | 2.42 ± 0.23 | 2.56 ± 0.18 | – | –
25 | ELSSLGSDSEANGFAERRIDKFGF [TBC1D10A] | 3.82 ± 0.2 | 3.83 ± 0.15 | – | –
26 | VQAPSYGARPVSSAASVYAGAGGS [KRT18] | 3.91 ± 0.081 | 3.82 ± 0.69 | – | –
27 | KTSELLVRKWRVKSALGAMGQWQL [DPCD] | 2.56 ± 0.76 | 2.47 ± 0.41 | – | –
28 | ELVLEQQLDREAQARHQLVLTAVD [PCDHGC5] | 3.99 ± 0.15 | 4.103 ± 0.038 | – | –
29 | TGFGQGQGYTINVPWNQVGMRDAD [HDAC6] | 2.89 ± 0.34 | 2.71 ± 0.28 | – | –
30 | RSQKHKERIRLLRQKREAAARKKY [C18orf25] | 4.17 ± 0.34 | 4.36 ± 0.31 | – | –
31 | EKLCSISLSHINAYACLVCGKYFQ [USP39] | 2.67 ± 0.56 | 2.61 ± 0.58 | – | –
32 | WQQQSYLDSGIHSGATTTAPSLSG [CTNNB1] | 3.71 ± 0.1 | 3.78 ± 0.33 | – | –
33 | KKDRPLARRKSELPQDPHTKKALE [PPP2R5C] | 5.11 ± 0.2 | 4.96 ± 0.12 | – | –
34 | ESIAHIGDVMFTGTADGRVVKLEN [APMAP] | 4.11 ± 0.17 | 4.38 ± 0.19 | – | –
35 | QNVDVNVHPTKHEVHFLHEESILE [MLH1] | 4.72 ± 0.19 | 4.75 ± 0.056 | – | –
36 | QTYQPPWKALSEFALQSDLDQPAF [ISL2] | 2.96 ± 0.28 | 3.04 ± 0.21 | – | –
37 | KIYAYPSNITSETGFRTISSLEEI [TMEM192] | 2.59 ± 0.15 | 2.9 ± 0.3 | – | –
38 | TPKSGEPRVPEEAAQDRPMSPGDC [YJU2B] | 5.49 ± 0.24 | 5.42 ± 0.25 | – | –
39 | EAPALGGGEYQEPGGNVKGVWAPP [BEX5] | 4.57 ± 0.37 | 4.71 ± 0.14 | – | –
40 | EIILYWKHSTIFDVGENLTVPDEF [SLC25A25] | 2.23 ± 0.85 | 2.1 ± 0.39 | – | –
41 | ATRSTTQSNRTSRLIGKKMNRSVS [WEE1] | 4.27 ± 0.28 | 4.21 ± 0.3 | – | –
42 | MAEASATGACGEAMAAAEGSSGPA [SEPHS2] | 5.44 ± 0.2 | 5.3 ± 0.17 | – | –
43 | PNYLANPAFPFIYTPTAEDSAQMQ [ANKRD40] | 3.85 ± 0.28 | 4.08 ± 0.26 | – | –
44 | YARTPTLDPDTMHARLRLSADRLT [TRIM14] | 2.91 ± 0.17 | 3.27 ± 0.33 | – | –
45 | PVIEELTNAGFLQTESELQELSEV [FAN1] | 4.87 ± 0.1 | 4.92 ± 0.16 | – | –
46 | VDPANDTFDIDPMVVTDCIQVDPP [MCOLN1] | 5.09 ± 0.38 | 5.22 ± 0.28 | – | –

Row | Sequence | protein stability index [1] | protein stability index [2] | protein stability index [3] | protein stability index [4]
47 | PPHREGEAAGGDHETESTSDKETD [CDS1] | 5.67 ± 0.31 | 5.58 ± 0.57 | – | –
48 | RVMPTQEVQELPIPSKLLEFLSYR [WSB1] | 2.94 ± 0.26 | 2.95 ± 0.24 | – | –
49 | ECAKAFSRSAILIQHRRTHTDSKY [ZNF396] | 2.55 ± 0.21 | 2.67 ± 0.21 | – | –
50 | DGLREALANLRGLSEEERSEKAML [CCDC89] | 4.93 ± 0.22 | 4.51 ± 0.44 | – | –
51 | QPPTTTVARSGTPAVENKQQIGDA [PLK2] | 5.4 ± 0.16 | 5.37 ± 0.37 | – | –
52 | PVFNAMFEHEMEESKKNRVEINDL [SPOPL] | 4.26 ± 0.32 | 4.69 ± 0.21 | – | –
53 | DTSFLPDRDREEEENRLREELRQE [FAM50A] | 5.17 ± 0.31 | 5.41 ± 0.18 | – | –
54 | EKERRKKQQWEIMHKHNETSQKIA [RSPH3] | 4.44 ± 0.42 | 4.91 ± 0.26 | – | –
55 | RAEPYPTSRFGSQCMQPNNIMGIE [NR2F2] | 2.84 ± 0.15 | 2.81 ± 0.18 | – | –
56 | WNDCISSGLRGGILIELAMRGRIY [GOLPH3L] | 2.89 ± 0.45 | 2.48 ± 0.53 | – | –
57 | GAGPPEPLRICPLHISVKEELDG [TRIM35] | – | – | 4.21 ± 0.32 | 4.56 ± 0.14
58 | PVTQIGFEAPPLQGQAAAPASGSG [TRIM55] | 5.14 ± 0.42 | 5.22 ± 0.14 | – | –
59 | MAVRPSLPESGLLSVLQIAQQDLA [FANCE] | 3.29 ± 0.28 | 3.53 ± 0.35 | – | –
60 | EDTKPKPTKRKRKGSSAVGSDSD [INTS3] | – | – | 5.45 ± 0.25 | 5.4 ± 0.33
61 | FKSLFGSIGDIESCKLVRDKITGQ [ELAVL3] | 2.87 ± 0.38 | 2.56 ± 0.15 | – | –
62 | GGPFPLPYTAPGGYLDVGSKPMY [TBX6] | – | – | 3.12 ± 0.43 | 3.43 ± 0.2
63 | VLYPDGQAQMIHPKPADFRNPGPG [INTS4] | 3.59 ± 0.098 | 3.67 ± 0.3 | – | –
64 | EPIPFWTFLSRILTGLNYEAPKYH [NSDHL] | 2.62 ± 0.23 | 2.76 ± 0.42 | – | –
65 | KDMATGKSKGYGFVSFFNKWDAEN [TIA1] | 2.44 ± 0.3 | 2.94 ± 0.28 | – | –
66 | ERTEESSAVQYFQFYGYLSQQQNM [CARM1] | 2.56 ± 0.25 | 2.82 ± 0.52 | – | –
67 | ILHPELTVDSMIPAYATTRIRSQI [GDAP1] | 2.52 ± 0.2 | 2.55 ± 0.17 | – | –
68 | SESSGQTHLEGDTVQIICNTGYRL [CFHR2] | 3.34 ± 0.21 | 3.48 ± 0.38 | – | –
69 | LFAEEQAEGPNRLLYKDGFSTILH [LPCAT4] | 3.17 ± 0.24 | 3.1 ± 0.35 | – | –

Row | Sequence | protein stability index [1] | protein stability index [2] | protein stability index [3] | protein stability index [4]
70 | LCRRLNTLNKCAVMKLEISPHRKR [DLC1] | 2.12 ± 0.069 | 2.85 ± 0.22 | – | –
71 | EIFRQRFRQFGYQDSPGPREAVSQ [ZNF24] | 2.7 ± 0.21 | 3.25 ± 0.082 | – | –
72 | EVDSGRQIEYEYKLAQALHEMREQ [LMNB1] | 4.51 ± 0.23 | 4.43 ± 0.23 | – | –
73 | AEALGKLLQQNKSIQSLTLEWNSL [LRRC45] | 2.13 ± 0.16 | 2.25 ± 0.32 | – | –
74 | QSGATISMPCSTDKENGENVGLES [SASS6] | 5.55 ± 0.22 | 5.43 ± 0.27 | – | –
75 | IEVFDPDANTWRLYGGMNYRRLGG [KLHL20] | 2.38 ± 0.45 | 2.17 ± 0.26 | – | –
76 | THALAEWASRREAFAQRPSSAPDL [CDC25B] | 3.91 ± 0.26 | 4.01 ± 0.082 | – | –
77 | VCMDLRANLKQVKKEDTEKERDLR [TNNI2] | 4.71 ± 0.18 | 4.77 ± 0.4 | – | –
78 | SRNAADKERAAGGGAGSSEDDAQS [GOLPH3] | 5.63 ± 0.24 | 5.6 ± 0.15 | – | –
79 | ARYGHLDMVEFLLEQCSASIEVGG [FEM1C] | 2.48 ± 0.5 | 2.14 ± 0.36 | – | –
80 | QNRRAKLKRSHRESQFLMAKKNFN [HESX1] | 3.43 ± 0.24 | 3.48 ± 0.43 | – | –
81 | SNGVEMAAKFPSGSQRARVVNTDH [SDE2] | 4.59 ± 0.2 | 4.58 ± 0.26 | – | –
82 | PQKSLFFHHIPSTCQRVNGIKVQN [SLC19A2] | 2.61 ± 0.17 | 2.78 ± 0.27 | – | –
83 | RYLGRPPSPTSPPPPELMDVSLVG [DYRK1B] | 3.98 ± 0.26 | 4.07 ± 0.29 | – | –
84 | SLRSIEQKYKLFQQQQLTFTAALE [SPACA9] | 2.6 ± 0.34 | 2.73 ± 0.35 | – | –
85 | CWLNAFAEMLRFGDRMFYRDWWNS [SOAT2] | 2.47 ± 0.4 | 2.91 ± 0.16 | – | –
86 | ESWDEEDKRNYPSLELDKMAHGYG [CHGB] | 4.87 ± 0.1 | 4.87 ± 0.14 | – | –
87 | VAEPLAGPACVTVILPSCVPYNK [KLHL14] | – | – | 2.32 ± 0.37 | 2.36 ± 0.32
88 | INRWRFLLQCLEDLDANLRKLNSR [CRY1] | 2.06 ± 0.16 | 2.45 ± 0.15 | – | –
89 | LGESKEHMESRMVTETEETQEKKA [SDE2] | 5.51 ± 0.3 | 5.75 ± 0.12 | – | –
